The values that follow come from publication doi:10.1101/2022.01.30.478305 (bioRxiv, 2022).

The target in the experiment is SARS-CoV-2 RBD-his (SARS-CoV-2, UniProt P0DTC2). The experiment in a line: ELISA. On the technique in general: An ELISA detects its analyte on a solid surface through an enzyme-linked reagent.

B1: 16L9 (antibody, V domains shown)
VH: EVQLVESGGGLIQPGGSLRLSCAASGFTVSSNYMSWVRQAPGKGLEWVSVIYSGGSTYYADSVKGRFTISRDNSENTLYLQMNSLRAEDTAVYYCARGEIQPYYYYGMDVWGQGTTVTVSS
VL: QSVLTQPPSASGSPGQSVTISCTGTSSDFGGYNSVSWYQQHPGKAPKLMIYEVSKRPSGVPDRFSGSKSGNTASLTVSGLQAEDEADYYCSSYAGSNNFDVFGTGTKVTVL
Take B1: the binding result is recorded as “binds”.
